PMC8563363

Key:
Assay in all cases: EMSA
[1] = biological target: T1, SMC3 head (Halo-SMC3HD-SCC1(Nt)) (Homo sapiens, UniProt Q9UQE7 1-251+=GGGGG+956-1216+=[…]+O60216:2-75, internal_change)
T1 sequence: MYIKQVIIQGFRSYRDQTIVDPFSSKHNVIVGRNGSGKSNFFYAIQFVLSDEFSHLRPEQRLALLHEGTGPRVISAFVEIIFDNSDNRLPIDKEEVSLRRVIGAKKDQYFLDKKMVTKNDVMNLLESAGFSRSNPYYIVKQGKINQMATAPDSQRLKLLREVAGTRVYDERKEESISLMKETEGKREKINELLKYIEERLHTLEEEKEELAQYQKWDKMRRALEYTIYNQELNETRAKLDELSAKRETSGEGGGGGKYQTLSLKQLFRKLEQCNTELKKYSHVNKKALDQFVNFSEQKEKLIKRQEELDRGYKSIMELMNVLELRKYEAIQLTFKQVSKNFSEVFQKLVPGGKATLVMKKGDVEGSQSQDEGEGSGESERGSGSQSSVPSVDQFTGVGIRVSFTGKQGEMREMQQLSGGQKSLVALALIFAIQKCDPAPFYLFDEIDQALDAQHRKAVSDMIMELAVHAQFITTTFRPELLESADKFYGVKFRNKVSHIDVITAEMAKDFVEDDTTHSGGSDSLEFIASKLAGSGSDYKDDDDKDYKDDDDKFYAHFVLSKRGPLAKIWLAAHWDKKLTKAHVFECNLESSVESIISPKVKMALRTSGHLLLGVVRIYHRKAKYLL

SMC1 head 4E = biological target: T2, SMC1 head 4E (Homo sapiens, UniProt Q14683;O60216 1-200+=GGGGG+1030-1233;531-631, K52E;R57E;K59E;R62E;internal_change)
T2 sequence 1: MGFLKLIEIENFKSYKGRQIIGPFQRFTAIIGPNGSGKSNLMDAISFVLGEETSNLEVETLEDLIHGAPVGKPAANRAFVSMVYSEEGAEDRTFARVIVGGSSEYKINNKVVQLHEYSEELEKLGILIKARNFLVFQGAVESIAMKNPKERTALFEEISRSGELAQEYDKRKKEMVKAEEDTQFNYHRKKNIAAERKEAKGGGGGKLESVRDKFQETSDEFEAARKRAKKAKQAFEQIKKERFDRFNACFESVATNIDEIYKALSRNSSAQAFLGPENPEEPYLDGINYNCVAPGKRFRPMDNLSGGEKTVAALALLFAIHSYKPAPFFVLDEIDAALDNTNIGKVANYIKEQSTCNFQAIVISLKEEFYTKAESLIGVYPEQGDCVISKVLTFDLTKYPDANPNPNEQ
T2 sequence 2: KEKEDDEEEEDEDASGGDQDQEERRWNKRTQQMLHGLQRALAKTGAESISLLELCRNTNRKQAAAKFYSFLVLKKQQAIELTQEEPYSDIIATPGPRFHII

deltaN-STAG1/SCC1(int) = biological target: T3, deltaN-STAG1/SCC1(int) (Homo sapiens, UniProt Q8WVM7;O60216 71-1258;281-420)
T3 sequence 1: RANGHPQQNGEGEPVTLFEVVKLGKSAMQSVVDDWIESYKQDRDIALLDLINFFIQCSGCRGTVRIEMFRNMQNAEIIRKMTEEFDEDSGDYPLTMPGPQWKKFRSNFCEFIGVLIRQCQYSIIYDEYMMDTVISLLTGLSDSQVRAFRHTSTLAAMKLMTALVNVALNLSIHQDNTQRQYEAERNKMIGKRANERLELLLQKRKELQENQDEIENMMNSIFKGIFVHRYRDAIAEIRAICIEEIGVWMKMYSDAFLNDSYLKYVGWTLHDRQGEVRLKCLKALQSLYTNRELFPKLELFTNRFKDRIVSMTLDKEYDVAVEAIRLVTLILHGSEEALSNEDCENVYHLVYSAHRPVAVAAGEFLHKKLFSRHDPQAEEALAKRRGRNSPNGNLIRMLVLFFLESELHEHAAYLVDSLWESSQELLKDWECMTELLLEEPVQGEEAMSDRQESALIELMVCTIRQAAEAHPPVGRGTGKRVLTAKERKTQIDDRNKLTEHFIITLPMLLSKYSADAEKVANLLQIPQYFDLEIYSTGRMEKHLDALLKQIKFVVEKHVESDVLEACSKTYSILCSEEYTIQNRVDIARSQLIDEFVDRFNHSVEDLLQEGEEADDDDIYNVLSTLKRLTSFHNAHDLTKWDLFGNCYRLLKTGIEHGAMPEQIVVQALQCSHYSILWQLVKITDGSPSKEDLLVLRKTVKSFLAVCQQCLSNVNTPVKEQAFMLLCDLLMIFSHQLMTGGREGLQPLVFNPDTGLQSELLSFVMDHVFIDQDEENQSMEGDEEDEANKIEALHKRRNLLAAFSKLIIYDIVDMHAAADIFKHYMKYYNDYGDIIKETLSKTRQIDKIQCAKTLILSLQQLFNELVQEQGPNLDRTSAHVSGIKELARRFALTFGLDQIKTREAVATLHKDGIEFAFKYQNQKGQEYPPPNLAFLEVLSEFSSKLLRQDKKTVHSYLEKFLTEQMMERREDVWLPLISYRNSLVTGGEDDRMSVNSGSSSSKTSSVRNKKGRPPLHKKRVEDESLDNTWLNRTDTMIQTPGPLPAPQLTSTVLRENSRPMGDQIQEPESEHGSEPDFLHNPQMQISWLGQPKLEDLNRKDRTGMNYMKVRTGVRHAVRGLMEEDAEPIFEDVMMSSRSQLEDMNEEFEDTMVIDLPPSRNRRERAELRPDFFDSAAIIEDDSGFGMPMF
T3 sequence 2: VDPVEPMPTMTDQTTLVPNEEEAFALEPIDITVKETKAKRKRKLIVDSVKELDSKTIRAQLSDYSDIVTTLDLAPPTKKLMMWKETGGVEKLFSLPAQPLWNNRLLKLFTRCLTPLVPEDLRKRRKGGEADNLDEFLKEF

deltaN-NIPBL2A = deltaN-NIPBL2A (Homo sapiens, UniProt Q6KC79 1-21+1041-2804, R1867A;K1870A;internal_change)
hinge (SMC1-SMC3) = hinge (SMC1-SMC3) (Homo sapiens, UniProt Q9UQE7;Q14683 484-696;461-685)
hinge (SMC1-SMC3), sequence (Q9UQE7 484-696, chain 1 of 2): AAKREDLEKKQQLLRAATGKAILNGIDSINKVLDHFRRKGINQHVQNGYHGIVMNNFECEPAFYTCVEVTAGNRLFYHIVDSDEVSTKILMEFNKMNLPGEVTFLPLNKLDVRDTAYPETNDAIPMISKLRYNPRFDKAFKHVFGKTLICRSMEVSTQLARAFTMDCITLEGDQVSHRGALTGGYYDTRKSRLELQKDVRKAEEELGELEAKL
hinge (SMC1-SMC3), sequence (Q14683 461-685, chain 2 of 2): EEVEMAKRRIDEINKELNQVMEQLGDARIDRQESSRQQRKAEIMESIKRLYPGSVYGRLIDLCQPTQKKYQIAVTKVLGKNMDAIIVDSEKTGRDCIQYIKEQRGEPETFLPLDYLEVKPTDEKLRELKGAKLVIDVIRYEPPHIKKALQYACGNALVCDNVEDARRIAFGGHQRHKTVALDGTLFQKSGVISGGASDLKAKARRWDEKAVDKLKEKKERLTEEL

B1: 40 bp dsDNA EMSA probe (dsDNA)
DNA 1: GCGGGTAATCCAGAGCCAGACGAGCACTACGAACAACTAA
DNA 2: TTAGTTGTTCGTAGTGCTCGTCTGGCTCTGGATTACCCGC
[1]
  binding result: binds
SMC1 head 4E
  binding result: no binding
deltaN-STAG1/SCC1(int)
  binding result: binds
deltaN-NIPBL2A
  binding result: no binding
Hinge (SMC1-SMC3)
  binding result: binds
